In the supplement of paper PMC7125110:
± gives the standard error. This sample holds only a part of the variants without activity.

B1: glmS ribozyme (parent)
chain: AUAAAAGCGCCAGAACUACAGAAAUGUAGUUGACGAGGAGGAGGUUUAUCGAAUUUUCGGCGGAUGCCUCCAAA

Key:
Conditions in all cases: with glucosamine-6-phosphate
[1] = variants of: B1; experiment: self-cleavage kobs at 40 uM GlcN6P; higher = faster cleavage; RNA array
How it was run: (§1)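 A hybridised Cy3 probe tracked barcoded ribozyme variants, transcribed in situ by E. coli RNA polymerase on sequenced MiSeq chips, at 37 °C. The variants received 40 μM to 10 mM glucosamine-6-phosphate in HEPES/KCl/Mg(OAc)2 buffer. kobs came from decay fits and kcat and KM from weighted Michaelis–Menten fits.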

[2] = variants of: B1; experiment: self-cleavage kobs at 160 uM GlcN6P; higher = faster cleavage; RNA array
How it was run: as §1

[3] = variants of: B1; experiment: self-cleavage kobs at 640 uM GlcN6P; higher = faster cleavage; RNA array
How it was run: as §1

[4] = variants of: B1; experiment: self-cleavage kobs at 2500 uM GlcN6P; higher = faster cleavage; RNA array
How it was run: as §1

[5] = variants of: B1; experiment: self-cleavage kobs at 10000 uM GlcN6P; higher = faster cleavage; RNA array
How it was run: as §1

Row | Variant | self-cleavage kobs at 40 uM GlcN6P [1] [s⁻¹] | self-cleavage kobs at 160 uM GlcN6P [2] [s⁻¹] | self-cleavage kobs at 640 uM GlcN6P [3] [s⁻¹] | self-cleavage kobs at 2500 uM GlcN6P [4] [s⁻¹] | self-cleavage kobs at 10000 uM GlcN6P [5] [s⁻¹]
1 | AUAAAGGCGCCAGAACUACAGAAAUGUAGUUGACGAGGAGGAGGUUUAUCAAAUUUUCGGCGGAUGCCUCCAAA [A6G G51A] | < 1e-05 | < 1e-05 | < 1e-05 | < 1e-05 | < 1e-05
2 | AUAAAGGCGCCAGAACUACAGAAAUGUAGUUGACUAGGAGGAGGUUUAUCGCAUUUUCGGCGGAUGCCUGCAAA [A6G G35U A52C C70G] | < 1e-05 | – | – | – | –
3 | AUAAAUGCGCCAGUACUACAGAAAUGUAGUUGACCAGGUGGAGGUUUAUCGAAUAUUAGGCGGAUGCCUCCAAA [A6U A14U G35C A39U U55A C58A] | < 1e-05 | – | – | < 1e-05 | < 1e-05
4 | AUAAAUGCGCCAGAUCUACAGAAAUGUAGUUGACGGGGAGGAGGUUUAUCGCAUUUUCGGCGGAUGCCUCCAAA [A6U A15U A36G A52C] | < 1e-05 | – | – | < 1e-05 | –
5 | AUAAAGGCGCCAGAACUACAGAAAUGUAGUUGACGAGGAGGAAGUUUAUCGAAUUUUCGGCGGAUGCCUCCAAA [A6G G43A] | < 1e-05 | < 1e-05 | < 1e-05 | < 1e-05 | < 1e-05
6 | AUAAAGGCGCCAGAACUACAGAAAUGUAGUUUACGAGGAGGAGGUGUAUCGAAUUUUCGGCGGAUGCCUCCAAA [A6G G32U U46G] | < 1e-05 | – | – | – | < 1e-05
7 | AUAAAGGCGCCAGAACUACAGAAAUGUAGUUGACGAGGAGGAGUUUUAUCGAAUUUUCGGCUAAUGCCACCAAA [A6G G44U G62U G63A U69A] | < 1e-05 | < 1e-05 | < 1e-05 | < 1e-05 | < 1e-05
8 | AUAAAGGCGCCAGAACUACAGAAAUGUAGUUGACGAGGAUGAGGUUUAUCGGAUUUUCGGCGGAGGCCUCCAAA [A6G G40U A52G U65G] | < 1e-05 | – | – | – | < 1e-05
9 | AUAAAGGCGCCAGAACUACAGAAAUGUAGUUGACGAGGAGGAGGUUUAUCUAAUUUCCGGCGGAUGCCUCCAAA [A6G G51U U57C] | < 1e-05 | – | – | – | < 1e-05
10 | AUAAAGGCGCCAGAACUACAGAAAUGUAGUAGACGAGGAGGAGGUGUAUCGAAUUUUCGGCGGAUGCGUCCAAA [A6G U31A U46G C68G] | < 1e-05 | – | – | – | < 1e-05
11 | AUAAAUGCGCCUGAACUACAGAAAUGUAGUUUACGAGGAGGAGGUUUAUCGAAUUUUCGUCGGAUGCCUCCAAA [A6U A12U G32U G60U] | < 1e-05 | – | – | – | –
12 | AUAAAGGCGCCAGAACUACAGAAAUGUAGUCGACGAGGAGUAGGUUUAUCGUAUUUUCGGCGGAUGCCUCCAAA [A6G U31C G41U A52U] | < 1e-05 | – | – | – | < 1e-05
13 | AUAAAGGCGCCAGAACUACAGAAAUGUAGUUGACGAGGAGGAGGUUUAUCGAAUUUUCGGCUGAUGCCUCCAAA [A6G G62U] | < 1e-05 | < 1e-05 | < 1e-05 | < 1e-05 | < 1e-05
14 | AUAAAGGCGCCAGAACUACAGAAAUGUAGUUGACGAGAAGGAGGUUUAUGGAAUUUUCGGCGGAUGCCUCAAAA [A6G G38A C50G C71A] | 9.73e-05 ± 2.8e-05 | – | – | – | –
15 | AUAAAGGCGCCAGAACUACAGAAAUGUAGUUGACUAGGAGGAGGUUUAUCGAAUUUUCGGCGGAUGCCUCCAAA [A6G G35U] | < 1e-05 | < 1e-05 | < 1e-05 | < 1e-05 | < 1e-05
16 | AUAAAGGCGCCAGAACUACAGAAAUGUAGUUGACAAGGAGGAGGUUUAUCGAAUUUUCGGCGGAUGCCUCCAAA [A6G G35A] | < 1e-05 | < 1e-05 | < 1e-05 | < 1e-05 | < 1e-05
17 | AUAAAUGCGCCGGAAUUACAGAAAUGUAGUUGACGAGAAGGAGGUUUAUCGAAAUUUCGGCGGAUGCAUCCAAA [A6U A12G C16U G38A U54A C68A] | 8.86e-05 ± 3.6e-05 | – | 0.000335 ± 0.0001 | 0.000395 ± 0.00011 | 8.53e-05 ± 1.8e-05
18 | AUAAAGGCGCCAGAACUACAGAAAUGUAGUUGACGAGGAGGAGGUUUAUCGAAUUUUCGGCGGACGCCUCCAAA [A6G U65C] | < 1e-05 | < 1e-05 | < 1e-05 | < 1e-05 | < 1e-05
19 | AUAAAGGCGCCAGAACUACAGAAAUGUAGUUGACGAGGAGGAGGUUUAUCGAAUUUUCGCCGGAUGCCUCCAAA [A6G G60C] | < 1e-05 | < 1e-05 | < 1e-05 | < 1e-05 | –
20 | AUAAAGGCGCCAGAACUACAGAAAUGUAGUUGACAAGGCGGAGGUUUAUCGAAUUUUCGGCCGAGGACUCCAAA [A6G G35A A39C G62C U65G C67A] | < 1e-05 | – | – | – | –
21 | AUAAAGGCGCCAGAACUACAGAAAUGUAGUUGACUAGGAGGGGGUGUAUCGAAUUUUCGGCGGAUUCCUCCAAA [A6G G35U A42G U46G G66U] | < 1e-05 | – | – | – | –
22 | AUAAAGGCGCCAGAACUACAGAAAUGUAGCUGACGAGGAGGAGGUUUAUCGAAUUUUCGGCGGAUGCCUCCAAA [A6G U30C] | < 1e-05 | < 1e-05 | – | – | –
23 | AUAAAGGCGCCAGAACUACAGAAAUGUAGUUGACAAGGAGGAGGUUUAUCGAAUUUUCGGCGGAUGUCACCAAA [A6G G35A C67U U69A] | < 1e-05 | < 1e-05 | < 1e-05 | < 1e-05 | < 1e-05
24 | AUAAAGGCGCCAGAACUACAGAAAUGUAGUUGACGAGGAGGAGGUUUAGCGAAUUUUCGGCGGAUGCCUCCAAA [A6G U49G] | < 1e-05 | – | – | < 1e-05 | –
25 | AUAAAGGCGCCAGAACUACAGAAAUGUAGUUGACGAGGAGGAGGAUUAUCGAAUUUUCGCCGGAUGCCUCCAAA [A6G U45A G60C] | < 1e-05 | – | – | – | < 1e-05
